Laboratory results from paper PMC7948760.
Where two headings read alike, the source gives them in different places. One block for each substance: values may come before it.

What was measured:
[1] = target: OG488-TFPIα-BR, TFPIα-BR modified with Oregon Green488 maleimide (human); assay: fluorescence polarisation; steady-state anisotropy; FV species (0–100 nM) titrated into 20 nM OG488-TFPIα-BR and 50 μM PCPS, assay buffer (20 mM HEPES, 0.15 M NaCl, 5 mM CaCl2, 0.1% PEG 8000, pH 7.4), 25 °C; fit to independent, noninteracting sites
[2] = target: FV-short-QQ (FV-short with Arg709 and Arg1545 replaced with Gln) (human); assay: fluorescence polarisation; competition: unlabeled TFPIα-BR (0–2 μM) or TFPIα (0–1 μM) titrated into 25 nM OG488-TFPIα-BR, 20 nM FV-short-QQ and 50 μM PCPS, assay buffer, 25 °C; stoichiometry of 1 assumed
[3] = target: FV-short (factor V isoform with B-domain residues 756 to 1458 deleted) (human); assay: inhibition of prothrombinase (prothrombin activation assay); 0.1 nM cofactor species, 50 μM PCPS, 1.4 μM prothrombin, 3 μM DAPA, TFPIα 0–500 nM with a twofold excess of anti-K2 antibody to block FXa inhibition, started with 2 nM FXa, assay buffer, 25 °C; Ki from the equation for competitive inhibition
[4] = target: FV-short-QQ (FV-short with Arg709 and Arg1545 replaced with Gln) (human); assay: as above
[5] = target: FV-short-QR∗ (FV-short-QR precleaved at Arg1545 with RVV-V) (human) (UniProt P12259); assay: as above
Chain of FV-short-QR∗ (FV-short-QR precleaved at Arg1545 with RVV-V) (human) (P12259 other isoform, or with tags, fused parts or gaps, chain 1 of 2): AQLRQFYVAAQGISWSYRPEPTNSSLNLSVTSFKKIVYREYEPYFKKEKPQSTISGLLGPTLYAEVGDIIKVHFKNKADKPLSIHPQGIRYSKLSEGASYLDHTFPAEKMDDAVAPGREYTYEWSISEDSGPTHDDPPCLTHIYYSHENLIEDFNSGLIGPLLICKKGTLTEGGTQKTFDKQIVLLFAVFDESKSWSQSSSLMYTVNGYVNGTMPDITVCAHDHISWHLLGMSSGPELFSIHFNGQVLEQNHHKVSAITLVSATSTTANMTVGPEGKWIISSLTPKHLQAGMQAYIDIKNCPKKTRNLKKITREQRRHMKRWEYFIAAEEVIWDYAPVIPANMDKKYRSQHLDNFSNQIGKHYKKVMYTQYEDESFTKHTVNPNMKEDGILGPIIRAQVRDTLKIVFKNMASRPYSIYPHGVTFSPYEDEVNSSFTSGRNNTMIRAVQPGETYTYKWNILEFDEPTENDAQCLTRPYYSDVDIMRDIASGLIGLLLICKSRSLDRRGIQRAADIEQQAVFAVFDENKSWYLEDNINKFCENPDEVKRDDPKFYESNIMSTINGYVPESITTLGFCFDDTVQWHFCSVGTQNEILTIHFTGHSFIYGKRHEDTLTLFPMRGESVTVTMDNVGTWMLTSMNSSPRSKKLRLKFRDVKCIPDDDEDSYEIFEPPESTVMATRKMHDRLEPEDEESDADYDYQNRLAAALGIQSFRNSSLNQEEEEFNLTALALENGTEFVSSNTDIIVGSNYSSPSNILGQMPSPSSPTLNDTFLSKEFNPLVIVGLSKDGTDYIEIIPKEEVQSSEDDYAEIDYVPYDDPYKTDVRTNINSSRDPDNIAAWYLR
Chain of FV-short-QR∗ (FV-short-QR precleaved at Arg1545 with RVV-V) (human) (P12259 1574-2224, chain 2 of 2): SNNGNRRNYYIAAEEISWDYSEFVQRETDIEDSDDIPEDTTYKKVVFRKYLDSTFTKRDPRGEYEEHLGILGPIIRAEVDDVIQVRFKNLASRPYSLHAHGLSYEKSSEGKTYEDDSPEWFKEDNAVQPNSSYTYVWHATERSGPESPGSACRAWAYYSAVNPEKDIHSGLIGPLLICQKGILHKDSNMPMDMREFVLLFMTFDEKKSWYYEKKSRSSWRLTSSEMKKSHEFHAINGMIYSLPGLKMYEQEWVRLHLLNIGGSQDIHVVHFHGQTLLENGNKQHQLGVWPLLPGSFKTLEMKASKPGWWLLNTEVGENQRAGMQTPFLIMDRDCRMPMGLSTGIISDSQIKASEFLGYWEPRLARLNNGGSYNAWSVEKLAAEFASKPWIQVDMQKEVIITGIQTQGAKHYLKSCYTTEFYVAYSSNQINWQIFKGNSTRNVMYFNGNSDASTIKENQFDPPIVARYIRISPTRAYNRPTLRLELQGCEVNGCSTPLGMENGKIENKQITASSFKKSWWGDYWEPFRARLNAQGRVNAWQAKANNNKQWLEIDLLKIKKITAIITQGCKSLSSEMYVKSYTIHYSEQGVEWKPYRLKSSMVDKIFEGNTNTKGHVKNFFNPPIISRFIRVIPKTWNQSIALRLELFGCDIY

[6] = target: FV-short-RQ∗ (FV-short-RQ precleaved at Arg709 with thrombin) (human) (UniProt P12259); assay: as above
Chain of FV-short-RQ∗ (FV-short-RQ precleaved at Arg709 with thrombin) (human) (P12259 29-737, chain 1 of 2): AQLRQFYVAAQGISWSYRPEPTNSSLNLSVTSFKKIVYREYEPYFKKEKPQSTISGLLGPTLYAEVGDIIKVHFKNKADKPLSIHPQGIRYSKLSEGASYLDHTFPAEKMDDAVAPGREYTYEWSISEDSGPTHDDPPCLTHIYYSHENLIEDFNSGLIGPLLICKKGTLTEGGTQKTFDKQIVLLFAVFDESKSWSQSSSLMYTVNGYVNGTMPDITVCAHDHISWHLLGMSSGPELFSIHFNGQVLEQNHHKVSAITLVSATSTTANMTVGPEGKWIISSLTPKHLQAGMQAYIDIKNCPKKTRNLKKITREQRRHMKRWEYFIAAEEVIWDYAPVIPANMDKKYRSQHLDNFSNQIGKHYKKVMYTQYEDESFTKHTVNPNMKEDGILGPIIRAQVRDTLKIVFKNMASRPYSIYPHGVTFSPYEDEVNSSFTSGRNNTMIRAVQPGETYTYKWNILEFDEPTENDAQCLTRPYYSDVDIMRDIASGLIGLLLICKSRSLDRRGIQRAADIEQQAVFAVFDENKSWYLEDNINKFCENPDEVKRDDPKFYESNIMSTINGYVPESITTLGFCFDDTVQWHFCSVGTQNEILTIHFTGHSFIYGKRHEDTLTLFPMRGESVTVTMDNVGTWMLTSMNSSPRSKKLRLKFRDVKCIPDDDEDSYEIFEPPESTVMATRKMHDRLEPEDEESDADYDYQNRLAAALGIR
Chain of FV-short-RQ∗ (FV-short-RQ precleaved at Arg709 with thrombin) (human) (P12259 other isoform, or with tags, fused parts or gaps, chain 2 of 2): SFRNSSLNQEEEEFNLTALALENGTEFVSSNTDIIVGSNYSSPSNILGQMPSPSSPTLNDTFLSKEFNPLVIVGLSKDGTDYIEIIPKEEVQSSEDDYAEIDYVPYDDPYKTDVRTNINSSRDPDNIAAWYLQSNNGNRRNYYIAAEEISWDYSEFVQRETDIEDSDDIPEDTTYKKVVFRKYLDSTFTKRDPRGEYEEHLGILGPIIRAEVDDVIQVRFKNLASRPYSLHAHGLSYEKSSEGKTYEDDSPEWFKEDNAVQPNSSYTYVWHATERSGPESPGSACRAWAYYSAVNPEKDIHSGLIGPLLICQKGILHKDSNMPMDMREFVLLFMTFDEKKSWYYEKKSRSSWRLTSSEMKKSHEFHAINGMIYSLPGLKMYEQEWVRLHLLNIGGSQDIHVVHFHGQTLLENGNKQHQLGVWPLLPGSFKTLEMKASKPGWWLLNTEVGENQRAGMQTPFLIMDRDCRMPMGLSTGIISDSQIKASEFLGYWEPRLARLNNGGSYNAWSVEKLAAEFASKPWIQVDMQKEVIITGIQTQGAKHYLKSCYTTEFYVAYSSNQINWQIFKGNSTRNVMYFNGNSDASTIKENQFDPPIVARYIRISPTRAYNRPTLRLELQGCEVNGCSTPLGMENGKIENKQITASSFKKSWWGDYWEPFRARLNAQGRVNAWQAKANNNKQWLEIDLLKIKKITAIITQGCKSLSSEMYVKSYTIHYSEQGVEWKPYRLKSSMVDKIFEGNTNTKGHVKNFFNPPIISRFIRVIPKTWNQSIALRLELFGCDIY

[7] = target: activated factor V (FVa) (human) (UniProt P12259); assay: as above
Chain of activated factor V (FVa) (human) (P12259 29-737, chain 1 of 2): as the sequence (P12259 29-737, chain 1 of 2) above
Chain of activated factor V (FVa) (human) (P12259 1574-2224, chain 2 of 2): as the sequence (P12259 1574-2224, chain 2 of 2) above

[8] = target: FV-short (factor V isoform with B-domain residues 756 to 1458 deleted) (human); assay: as above; remark: listed apart in the source
[9] = target: FV-short-QQ (FV-short with Arg709 and Arg1545 replaced with Gln) (human); assay: as above; remark: listed apart in the source
[10] = target: FV-short-RQ∗ (FV-short-RQ precleaved at Arg709 with thrombin) (human) (UniProt P12259); assay: as above; remark: listed apart in the source
[11] = target: TFPIα (Homo sapiens) (UniProt P10646); assay: SPR; conditions: cited from earlier work
Chain of TFPIα (Homo sapiens) (P10646 29-304): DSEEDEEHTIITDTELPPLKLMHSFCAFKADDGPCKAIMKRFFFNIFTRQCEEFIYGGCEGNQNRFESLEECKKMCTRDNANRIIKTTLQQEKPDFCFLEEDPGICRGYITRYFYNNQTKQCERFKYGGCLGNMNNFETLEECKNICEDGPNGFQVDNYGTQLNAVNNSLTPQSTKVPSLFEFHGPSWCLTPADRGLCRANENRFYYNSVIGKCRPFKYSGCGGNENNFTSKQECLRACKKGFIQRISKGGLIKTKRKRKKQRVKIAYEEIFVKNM

Chain of factor V (P12259 1574-2224): as the sequence (P12259 1574-2224, chain 2 of 2) above

- stoichiometry N [1]: 1.25
Substance: FV-short (factor V isoform with B-domain residues 756 to 1458 deleted) (natural protein)

- Kd [2]: 0.73 nM
- Ki [3]: 0.23 nM
- Ki [4]: 0.11 nM
- Ki [5]: > 500 nM
- Ki [6]: 0.24 nM
- Ki [7]: > 500 nM
- Ki [8]: 0.14 nM
- Ki [9]: 0.1 nM
- Ki [10]: 0.26 nM
Substance: tissue factor pathway inhibitor alpha (TFPIα), full-length (from UniProt P10646-1 29-304) (natural protein)

Substance: factor V (from UniProt P12259)
- Kd [11]: 13 nM
